The text below walks through data of patent publication US12168686.

Assay [1] has as its target soluble DR5-Fc fusion protein (UniProt O14763). Description: BLI (ForteBio Octet), ratio of koff against TRAIL-Trimer.
Assay [2] shares this target. In words: BLI (ForteBio Octet), biotin-labeled DR5-Fc on streptavidin sensors.
Assay [3] has the same target. In words: BLI (ForteBio Octet), biotin-labeled DR5-Fc on streptavidin sensors, analyte 15.4 nM-123.5 nM.
Assay [4] has the same target. In words: BLI (ForteBio Octet), ratio of kon against TRAIL-Trimer.

Sequence of native TRAIL (recombinant soluble human TRAIL from E. coli) (P50591 114-281 limits assumed): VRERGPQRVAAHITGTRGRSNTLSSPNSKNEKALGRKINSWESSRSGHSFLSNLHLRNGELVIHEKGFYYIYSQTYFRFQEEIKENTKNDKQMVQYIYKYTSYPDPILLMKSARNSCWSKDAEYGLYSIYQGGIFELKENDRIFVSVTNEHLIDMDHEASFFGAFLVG
Sequence of soluble DR5-Fc fusion protein (O14763 56-182 limits assumed): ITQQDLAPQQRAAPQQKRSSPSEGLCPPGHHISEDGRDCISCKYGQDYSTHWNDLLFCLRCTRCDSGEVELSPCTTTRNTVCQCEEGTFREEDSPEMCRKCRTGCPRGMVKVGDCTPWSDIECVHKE

Take “native TRAIL (recombinant soluble human TRAIL from E. coli) (from UniProt P50591 114-281) (ligand)”: the fold faster dissociation than TRAIL-Trimer in assay [1] was more than 460 fold. In assay [2], the koff is 4.6e-05 s⁻¹ and the on-rate (kon) stood at 175000 M⁻¹ s⁻¹. In assay [3], the Kd worked out at 263 pM. In addition, the fold faster association than TRAIL-Trimer in assay [4] was 2 fold.
